Results reported in article doi:10.1101/2024.08.08.607204, “Mechanism of ASF1 Inhibition by CDAN1” (bioRxiv, 2024).
Values joined by “and” are separate entries in the source; they are usually repeats but may differ in a detail not shown here. Equal entries are not always repeated.

B1: CDAN1 MA3 domain (ST-CDAN1C, residues 1008-1227) (domain or fragment, human, UniProt Q8IWY9 1008-1227, looked up)
chain: GERRGCSRACEHHAPLPSHLISEIKDVLSLAVGPRDPDEGVSPEHLEQLLGQLGQTLRCRQFLCPPAEQHLAKCSVELASLLVADQIPILGPPAQYRLERGQARRLLHMLLSLWKEDFQGPVPLQLLLSPRNVGLLADTRPREWDLLLFLLRELVEKGLMGRMEIEACLGSLHQAQWPGDFAEELATLSNLFLAEPHLPEPQLRACELVQPNRGTVLAQS
notes: Codanin-1 (CDAN1), MA3 domain, residues 1008-1227; also called Strep-CDAN1C; CDAN1 C-term; source: Expi293, transiently transfected, purified in complex with F-CDIN1 (anti-FLAG, Strep-Tactin); not shown: 3xStrep-II-TEV, N-terminal, kept
B2: FLAG-tagged CDIN1 (F-CDIN1) (natural protein, UniProt Q9Y2V0 1-281, looked up)
chain: MILTKAQYDEIAQCLVSVPPTRQSLRKLKQRFPSQSQATLLSIFSQEYQKHIKRTHAKHHTSEAIESYYQRYLNGVVKNGAAPVLLDLANEVDYAPSLMARLILERFLQEHEETPPSKSIINSMLRDPSQIPDGVLANQVYQCIVNDCCYGPLVDCIKHAIGHEHEVLLRDLLLEKNLSFLDEDQLRAKGYDKTPDFILQVPVAVEGHIIHWIESKASFGDECSHHAYLHDQFWSYWNRFGPGLVIYWYGFIQELDCNRERGILLKACFPTNIVTLCHSIA
notes: CDIN1 (C15orf41) cDNA synthesized by IDT, in pCDNA3.1; source: Expi293, transiently transfected, in lysate and purified in complexes (anti-FLAG, Strep-Tactin); not shown: 3xFLAG, N-terminal, kept
B3: Strep-tagged CDAN1 (ST-CDAN1), wildtype (natural protein, human)
chain: MAAVLESLLREEVSVAAVVRWIARSTQGSEDNAGEAAALSSLRALRKEFVPFLLNFLREQSSRVLPQGPPTPAKTPGASAALPGRPGGPPRGSRGARSQLFPPTEAQSTAAEAPLARRGGRRRGPGPARERGGRGLEEGVSGESLPGAGGRRLRGSGSPSRPSLTLSDPPNLSNLEEFPPVGSVPPGPTGTKPSRRINPTPVSEERSLSKPKTCFTSPPISCVPSSQPSALDTSPWGLGLPPGCRSLQEEREMLRKERSKQLQQSPTPTCPTPELGSPLPSRTGSLTDEPADPARVSSRQRLELVALVYSSCIAENLVPNLFLELFFVFQLLTARRMVTAKDSDPELSPAVLDSLESPLFQSIHDCVFFAVQVLECHFQVLSNLDKGTLKLLAENERLLCFSPALQGRLRAAYEGSVAKVSLVMPPSTQAVSFQPETDNRANFSSDRAFHTFKKQRDVFYEVLREWEDHHEEPGWDFEKGLGSRIRAMMGQLSAACSHSHFVRLFQKQLLQMCQSPGGAGGTVLGEAPDVLSMLGADKLGRLWRLQERLMAPQSSGGPCPPPTFPGCQGFFRDFILSASSFQFNQHLMDSLSLKIQELNGLALPQHEPNDEDGESDVDWQGERKQFAVVLLSLRLLAKFLGFVAFLPYRGPEPPPTGELQDSILALRSQVPPVLDVRTLLQRGLQARRAVLTVPWLVEFLSFADHVVPLLEYYRDIFTLLLRLHRSLVLSQESEGKMCFLNKLLLLAVLGWLFQIPTVPEDLFFLEEGPSYAFEVDTVAPEHGLDNAPVVDQQLLYTCCPYIGELRKLLASWVSGSSGRSGGFMRKITPTTTTSLGAQPSQTSQGLQAQLAQAFFHNQPPSLRRTVEFVAERIGSNCVKHIKATLVADLVRQAESLLQEQLVTQGEEGGDPAQLLEILCSQLCPHGAQALALGREFCQRKSPGAVRALLPEETPAAVLSSAENIAVGLATEKACAWLSANITALIRREVKAAVSRTLRAQGPEPAARGERRGCSRACEHHAPLPSHLISEIKDVLSLAVGPRDPDEGVSPEHLEQLLGQLGQTLRCRQFLCPPAEQHLAKCSVELASLLVADQIPILGPPAQYRLERGQARRLLHMLLSLWKEDFQGPVPLQLLLSPRNVGLLADTRPREWDLLLFLLRELVEKGLMGRMEIEACLGSLHQAQWPGDFAEELATLSNLFLAEPHLPEPQLRACELVQPNRGTVLAQS
notes: Codanin-1 (CDAN1) cDNA from Horizon Discovery/Dharmacon; a point mutation of the clone (S421F) was corrected; in pCDNA3.1; Dimer by SEC-MALS and cryo-EM; Same plasmid used in Expi293 (purifications) and in Flp-In 293 T-REx (pulldowns); kept as one molecule; also called WT CDAN1; Strep-CDAN1; source: Expi293, transiently transfected, in lysate and purified in complexes (anti-FLAG, Strep-Tactin); …

Assays:
[1] = biological target: B2; experiment: cryo-EM structure; purified CDAN1 C-term:CDIN1 (C:C) complex crosslinked with BS3, 0.78 mg/mL; single-particle cryo-EM, ~6 Å reconstruction; settings: both partners purified
[2] = biological target: B3; experiment: SEC-MALS; 200 μg of each purified complex at 5 μM on an SRT SEC-300 column with DAWN HELEOS II detector; dn/dc 0.185; settings: both partners purified
[3] = biological target: the molecule itself; experiment: as above

Binder: B1
binding result [1]: binds

Binder: B2
stoichiometry N [2]: 2 copies of CDIN1 per two copies of CDAN1

Binder: B3
stoichiometry N [3]: 2 copies of CDAN1 in the C:A complex and 2 copies of CDAN1 in the C:C:A complex
